# Measurements: paper PMC3664923, “Structures of CD200/CD200 Receptor Family and Implications for Topology, Regulation, and Evolution” (Structure(London, England:1993), 2013)
# Substitutions are numbered along the chain they refer to. Values joined by “and” are separate entries in the source; they are usually repeats but may differ in a detail not shown here. Identical values can stand only once. Like-named read-outs stand apart in the source and are kept apart here.
# T1: mouse CD200R (residues 1-232) CD4-Bio chimeric protein (mouse, UniProt Q9ES57 26-232)
# T1 chain: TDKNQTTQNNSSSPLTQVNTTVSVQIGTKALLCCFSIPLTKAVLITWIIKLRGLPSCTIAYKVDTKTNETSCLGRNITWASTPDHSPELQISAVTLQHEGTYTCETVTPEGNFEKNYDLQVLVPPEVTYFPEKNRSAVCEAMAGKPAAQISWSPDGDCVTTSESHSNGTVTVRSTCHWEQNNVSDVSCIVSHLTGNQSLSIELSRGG
# T2: mouse CD200RLa (residues 1-237) CD4-Bio chimeric protein, wild type (mouse)
# T2 chain: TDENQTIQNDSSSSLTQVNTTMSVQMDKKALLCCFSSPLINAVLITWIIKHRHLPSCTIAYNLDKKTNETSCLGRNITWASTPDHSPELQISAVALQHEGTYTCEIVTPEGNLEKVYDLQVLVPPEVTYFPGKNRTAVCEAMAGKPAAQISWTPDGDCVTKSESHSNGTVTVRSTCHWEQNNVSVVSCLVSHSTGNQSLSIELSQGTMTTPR
# T3: mouse CD200RLa (residues 1-237) CD4-Bio, triple mutant N63K, K66T, and L114F (mouse)
# T3 chain: T2 chain with N62K, K65T, L113F
# B1: mouse CD200 extracellular region with C-terminal polyhistidine tag (ligand, UniProt O54901 31-232, looked up)
# chain: QVEVVTQDERKALHTTASLRCSLKTSQEPLIVTWQKKKAVSPENMVTYSKTHGVVIQPAYKDRINVTELGLWNSSITFWNTTLEDEGCYMCLFNTFGSQKVSGTACLTLYVQPIVHLHYNYFEDHLNITCSATARPAPAISWKGTGTGIENSTESHFHSNGTTSVTSILRVKDPKTQVGKEVICQVLYLGNVIDYKQSLDKG
# modifications: N-linked sugars cut back to N-acetyl-glucosamine by Endoglycosidase Hf (crystallised form); NH2 terminus presumably cyclized glutamine (pyroglutamic acid)
# notes: signal peptide in the construct; mouse CD200, extracellular region (two Ig-like domains), residues 1-232 of NP_034948; the range counts on the precursor; Protein in the flow-through of the concanavalin A column was crystallised; protein eluted from the column was used as the soluble ligand in SPR; also called soluble CD200; recombinant CD200
# Experiments:
# [1] = biological target: CD200R (Mus musculus) (UniProt Q9ES57); conditions: cited from earlier work
# [2] = biological target: mouse CD200 (residues 1-232) CD4-Bio, mutant Q27K (mouse) (UniProt O54901); experiment: SPR; BIAcore 3000, 25°C, HBS; wild-type and mutant CD200 CD4-Bio and CD4 control (about 650 RU each) held by OX68 mAb amine coupled to a CM5 chip; serial dilutions of soluble CD200R injected (KD from equilibrium binding), mutants tested with CD200R at 0.5 μM and given as percent of wild type
# [3] = biological target: mouse CD200 extracellular region (residues 1-232) tagged with rat CD4 domains 3 and 4 and a biotinylation site, wild type (mouse) (UniProt O54901); experiment: as above
# [4] = biological target: CD200R (Mus musculus) (UniProt Q9ES57); conditions: cited from earlier work; remark: listed apart in the source
# [5] = biological target: T1, mouse CD200R (residues 1-232) CD4-Bio …; experiment: SPR
# [6] = biological target: T2, mouse CD200RLa (residues 1-237) CD4-Bio …; experiment: SPR
# [7] = biological target: T3, mouse CD200RLa (residues 1-237) …; experiment: SPR
# [8] = biological target: mouse CD200RLa (residues 1-237) CD4-Bio, double mutant N63K K66T (mouse); experiment: SPR; BIAcore 3000, 25°C; CD200R and wild-type and mutant CD200RLa CD4-Bio held by OX68 on a CM5 chip; increasing concentrations of CD200 injected; KDs by nonlinear curve fitting
# [9] = biological target: mouse CD200RLa (residues 1-237) CD4-Bio, mutant L114F (mouse, UniProt Q6XJV4 26-237, L114F); experiment: as above; conditions: one partner purified
molecule,measurement,setting,value
CD200 (from UniProt O54901),Kd,[1],4 µM
mouse CD200R extracellular region with C-terminal polyhistidine tag (receptor),percent of wild-type binding response,[2],150%
same,Kd,[3],500 nM
CD200 (from UniProt P41217),Kd,[4],7 µM
B1,Kd,[5],600 nM
same,Kd,[6],> 40 µM
same,Kd,[7],1100 nM and 900 nM
same,Kd,[8],18.4 µM
same,Kd,[9],4.2 µM
